Reference: the supplement of paper PMC9170038

System: K4 kissing-loop RNA reporter
Assay: apparent KD of K4 kissing-loop reporter; higher = weaker reporter binding
Conditions: Eterna round: R107
Protocol: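 RNA-MaP round R107: designed RNA switches with theophylline, tryptophan, arginine or FMN aptamers are transcribed on-chip within common flanks. They are titrated with a labelled K4 kissing-loop RNA reporter in RNA-MaP buffer (100 mM Tris pH 7.5, 80 mM KCl, 4 mM MgCl2), without ligand or with the indicated ligand. Median apparent KD per design.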

[1] = input ligand: theophylline 20 uM
[2] = input ligand: tryptophan 2.4 mM
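Also: bound reporter read as fluorescence of individual clusters on recovered sequencing chips by microscopy, with normalized cluster intensities fitted with a binding model.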

Row | Sequence | apparent KD of K4 kissing-loop reporter (input ligand: FMN 200 uM) | apparent KD of K4 kissing-loop reporter (input ligand: arginine 13.2 mM) | apparent KD of K4 kissing-loop reporter (input ligand: none) | apparent KD of K4 kissing-loop reporter [1] | apparent KD of K4 kissing-loop reporter [2]
1 | GAUAUAGAGGCGGCCGCCACUAGUGAUGUUAGUGAUGUUAGAUAGAGAAUAGAACAGAGGUGGGAUAGGACCGGGCCAGAUAGAG [whbob_SS_Tryp_B_w34] | 90.6 nM | 72.7 nM | 67.9 nM | 65.8 nM | 76 nM
2 | UUCUAGCCGAAAGGCUAGUCGGCUUCAGAUACCAGUCGCGAAAGCGACCCUUGGCAGCUGUGUAGUGAUGUUGCAAAGAAAGCCG | 556 nM | 435 nM | 618 nM | 262 nM | 524 nM
3 | AGUGAUAUAUGAGGAUAUGGGUUAAUUAGUGAGUUAUUUUUAGUGUUGUUUGAUUAGUGAUGUUAUUUAGAAGGCGUGAGUGAUG [awwswmjmullin] | 113 nM | 75 nM | 67.5 nM | 130 nM | 61.7 nM
4 | GCAAAACAAACGUAGAGUGGAACACAGAGACGAGGACCGGUACGGCCGCCACUCGACGAGGUUUUCAGUGAUGUUGAAAAUUUAG [Exclusion Tryptophan A GF2] | 133 nM | 162 nM | 125 nM | 151 nM | 199 nM
5 | AAGGUAAGUGCAUACAAAGUGAUGUUUUGUCGAGGACCGGUACGGCCGCCACUCGCCCAGUUAAGUGACCGACGUCAACGAAUAA [theeternabot_exclusion_KL_Trp_A_21] | 606 nM | 552 nM | 582 nM | 502 nM | 498 nM
6 | UGUCAUUGGUCGGCCGCCACUAGACGGACAUAAAGUCUGUCAUAAAGAGUGAUGUUCUUAAAUAAUAGGACCGGGACCGAUGACU [TrypBS 29 #SwitchBubble #StaticStem] | 440 nM | 382 nM | 872 nM | 611 nM | 218 nM
7 | CGAGAGCUCUUGUUUGGAUGUGUUUUAUGGCGAGGACCGGUACGGCCGCCACUCGGGUGAUGUUAGUGAUGUUGAUGUAGUGAUG [qzxmullin] | 118 nM | 79.6 nM | 92.7 nM | 154 nM | 91.4 nM
8 | UUUCGGUUCUGAGGAUAUUCGGACAAAUAUAGUGAUGUUGUAUAAGGAGGAGGGUGUUGGCAGUGAGGAGAAGGCAGAAGAGGAU [ExFMNB.T] | 1000 nM | 677 nM | 946 nM | 524 nM | 622 nM
9 | UUUAAAUAUAGUGAUGUUAUAUAACAAUGACGAGGACCGGUACGGCCGCCACUCGAGAGAGAUAAUGGUCUAUAGAAUCUAUAGC [AstrosSSTryA#4] | 726 nM | 622 nM | 803 nM | 870 nM | 508 nM
10 | CAACUACCCGGAAGGAGCGCGGGUGUAAAUCAAAGGGCUUGAGUGAUGUUCAAGCGGAACCCGCAGGUAGGUCGCCGGGAAGCCC [Quaneson] | 113 nM | 114 nM | 119 nM | 114 nM | 122 nM
11 | AAUAAAAUCACGGCCGCCACUGAUUAGCAUAUUAGGAGUGAUGUUUCUAUGACUAUAUAAUUGAACAGGACCGGGUGAAUAUUUA [#20 K4 Tryptophan B Exclusion] | 424 nM | 294 nM | 417 nM | 314 nM | 400 nM
12 | UGAUAGGACAGAAGGAGCGGUAGUGAUGUUGCCAAAAGGGUAAGGUGUCAAAAGACACCCUGCCAGGUAGGUCGCUGUCCUAUCU | 99.7 nM | 93.8 nM | 98.5 nM | 96.6 nM | 81.9 nM
13 | UGACAUUGCUCAGAUACCAGACAUGAGCAUCAGCCAUGUGCCAAAUACGUACAAAUAAAUGUCCCUUGGCAGCUGAGCAAUGUCU [TheoBX 12] | 66.7 nM | 30.7 nM | 37.5 nM | 80 nM | 44.4 nM
14 | AGGAGCGUGCGAUGUAAAUCGCACGCUCCACGAGGACCGGUACGGCCGCCACUCGCUCGUGCAGAGUGAUGUUCUGCCGGCGAAU [#2 Same State - Tryptophan A Attempt #24 (HarryS)] | 306 nM | 202 nM | 270 nM | 248 nM | 260 nM
15 | UGACUGGACUGAAGGAGCGCGCGAGACAAAGUCUCGAACUUCUAGUGAUGUUAGAAAAUAACGCAGGUAGGUCGCAGUCUAGUCU | 165 nM | 137 nM | 152 nM | 147 nM | 147 nM
16 | GCGGCCCAGCCGGAUACCAGUGACCCGCUGGGAACCGCGGGCCCAGAGUGAUGUUCGGGACACCCUUGGCAGCCGCCUGGGUCGC [#2 Same State - Theophylline B Attempt #18 (HarryS)] | 689 nM | 274 nM | 928 nM | 684 nM | 320 nM
17 | GUAUCGCUAGGAGGAUAUUCCGUUUUUCAUAGCAAUGGCUAUGCGGAGUGAUGUUCCGAUUUACCGGAAGAAGGCCUAGUGAUAC [FMN B 24] | 108 nM | 139 nM | 128 nM | 148 nM | 114 nM
